Entries after “also recorded” stand apart in the source; their conditions may differ.
How the values were obtained:
sf9 cells = experiment: tyrosine phosphorylation by H2O2 processing of expressing insect cells, western blotting with phosphorylated tyrosine specific antibody; format: cell-based, Spodoptera frugoperda; settings: 200 μM H2O2 for half of an hour; FIG. 2, FIG. 5
Procedure: The results shown in FIG. 5 were obtained by solely expressing the fused proteins, GST-DDR2 CKD, the GST-DDR1b CKD, the GST-CDK4 and the GST-CDK1, respectively, in insect cells; processing with 200 μM of H2O2 for half of an hour; purifying the respective expressed product using glutathione beads; performing the SDS-PAGE; and performing the western blotting test using an phosphorylated tyrosine specific antibody and coomassie staining.
The results shown in FIG. 5 have been obtained by solely expressing GST-DDR2 CKD, GST-DDR1b CKD, GST-CDK4 and GST-CDK1, respectively in sf9 cells; processing each expressed cells with H2O2 of 200 uM for half of an hour or not; and then purifying the GST tagged protein followed by a western blotting using a phosphorylated tyrosine specific antibody. The presence of a similar amount of each purified GST tagged protein was shown by CBB staining.
The recombinant baculoviruses having the GST-DDR2 CKD coding gene were transfected into sf9 insect cells, by setting MOU to 10 and the cells were cultured for 24 to 72 hours, to express the protein. […], at the concentration of 200 μM was added to the cultured cells. The cells were left for half of an hour, and collected. The collected cells were lysed and the GST-DDR2 CKD was purified from the expressed products, using the glutathione agarose bead column chromatography. The purified protein was subjected to an electrophoresis in 10% polyacrylamaid gel.
After completing the electrophoresis, the protein developed in the gel was transferred to nitrocellulose, and then subjected to a western blotting using a phosphorylated tyrosine specific antibody (Cell signaling Inc, USA), to measure the chemiluminescence signal using x-ray film. For the control, the chemical luminescence of the case without H2O2 processing was measured by the method as mentioned above.

c-Src tyrosine kinase = molecular target: T1, c-Src tyrosine kinase (Mus musculus, UniProt P05480, P80A); experiment: tyrosine phosphorylation on co-expression with c-Src in insect cells, western blotting with phosphorylated tyrosine specific antibody; format: cell-based, Spodoptera frugiperda; settings: glutathione bead purified, FIG. 2, FIG. 4
T1 construct: Full length human c-Src gene was per amplified from the vector of pUSE human O-Src wild (Upstate Biotechnology); host or cells: sf9 insect cells co-infected with two recombinant baculoviruses
From the text: The results shown in FIG. 4 were obtained by co-expressing a fused protein GST-DDR2 CKD, a fused protein (GST-DDR1b CKD) of the GST and the human DDR1b cytosolic tyrosine kinase domain, a fused protein (GST-Akt1) of the GST and the full-length mouse Akt1 kinase and a fused protein (GST-CDK4) of the GST and the full-length human CDK4 kinase with the c-Src protein without GST tagging in insect cells, respectively; purifying the respective expressed product using glutathione beads; performing SDS-PAGE; and performing the western blotting test using a phosphorylated tyrosine specific antibody and coomassie staining.
The results shown in FIG. 4 have been obtained by co-expressing the full-length c-Src protein together with the fused proteins, GST-DDR2 CKD, GST-DDR1b CKD, GST-Akt1 and GST-CDK4, respectively; in sf9 cells, then performing a western blotting test on each purified GST tagged protein using a phosphorylated tyrosine specific antibody. The presence of a similar amount of each purified GST tagged protein was shown by CBB staining.
GST tagged kinase defective DDR2 cytosolic domain (GST-kd-DDR2-CKD) with intact three tyrosines in the activation loop or with various phenylalanine mutations described in the text were co-expressed with Src in sf9 cells. GST tagged proteins were purified and the same amount of proteins estimated by CBB staining was used for western blotting using P-tyro antibody.
(§1) Phospho-tyrosine specific antibody was purchased from Cell Signaling Inc, USA. Specific antibodies to human c-Src, human c-Fyn, and she were obtained from SantaCruz, USA. Samples were boiled for 2 min in 1× lameli sample buffer, and loaded in 10% SDS-PAGE. Proteins were transferred to Immobilon-P membrane (Millipore) and blacked by 10% skim milk in TBS for an hour. The membrane was immunoblotted with antibodies for 2 hours and subsequently washed with 1×TBS five times. Then it was incubated with HRP conjugated secondary antibodies for an hour and protein bands were detected using chemiluminescence kit (Amersham).

shc protein = experiment: in vitro shc binding assay using HSC T6 cell lysate; parameters: species or system human
From the text: One of the characteristic features of tyrosine phosphorylated cytosolic domain of receptor tyrosine kinase is to recruit the signaling proteins such as shc protein. This complex formation between the cytosolic domain of receptor tyrosine kinase protein and signaling proteins such as shc is important for the cellular transmission of the activated receptor tyrosine kinase signal. It has been observed in HSC T6 liver stellate cells and fibroblast cells that shc, one of signaling protein containing PTB domain binds to activated DDR2 cytosolic domain. The present inventors examined whether the invented DDR2 cytosolic tyrosine kinase domain protein with induced tyrosine phosphorylation for example, by the method of co-expression with c-Src in sf 9 cells or with the mutation of tyrosine 740 to phenylalanine 740 can be used for in vitro shc binding assay. In FIG. 15, the purified GST-DDR2 cytosolic domain from sf 9 cells with and without Src coinfection were used for in vitro shc binding assay. Each protein was subject to autophosphorylation reaction at 30° C. for 15 min, and a mock-autophosphylation reaction as well where gamma-S-ATP was used instead of ATP in the reaction buffer before they were used for in vitro shc binding assay using HSC T6 cell lysate.
The purified GST-DDR2 CKD proteins without or with tyrosine phosphorylation by Src were subject to in vitro shc binding assay after autophosphorylation reaction or a mock-autophosphorylation reaction as described in materials and methods. The bound proteins on the glutathione bead were eluted by boiling in 1× lameli buffer. The presence of shc in the eluate was measured by western blotting using shc antibody and the accumulation of tyrosine phosphorylation at GST-DDR2 CKD proteins resulted from autophosphorylation was shown by western blotting using P-tyro antibody. The presence of an equal amount of GST-DDR2 CKD proteins in each eluate was confirmed by CBB staining. ‘Bead only’ means that no GST-DDR2 CKD protein was applied on glutathione bead as a control.
The same type of experiment was done as FIG. 15 using purified GST-DDR2 CKD phosphorylated by src and its mutant proteins of Y740F and Y736/740/741F.
As a source of shc protein, total lysate of HSC T6 cells was used. For the preparation of the lysate, 2×10^7 HSC T6 cells were harvested and lysed by sonication in 5 ml of lysis buffer consisting of 20 mM Tris-HCl (pH8.0), 0.1M NaCl, 5 mM DTT, 10 mM NaF, […], 0.02% IGE-PAL (Sigma) and a proteinase inhibitor cocktail pellet (Roche). The supernatant was obtained by centrifugation in 15,000 rpm for 10 min at 4° C. and used for the following shc binding assay. Various GST-DDR2 KD proteins bound to glutathione bead were obtained as described above. […]

c-Fyn tyrosine kinase = molecular target: T2, c-Fyn tyrosine kinase (Homo sapiens, UniProt P06241); experiment: tyrosine phosphorylation on co-expression with c-Fyn in insect cells, western blotting with phosphorylated tyrosine specific antibody; format: cell-based; settings: FIG. 2
T2 construct: Full length human c-Fyn gene was per amplified from the vector containing full length human c-Fyn purchased from Invitrogen, USA; host or cells: sf9 insect cells co-infected with two recombinant baculoviruses
T2 sequence (P06241 2-482 isoform P06241-3): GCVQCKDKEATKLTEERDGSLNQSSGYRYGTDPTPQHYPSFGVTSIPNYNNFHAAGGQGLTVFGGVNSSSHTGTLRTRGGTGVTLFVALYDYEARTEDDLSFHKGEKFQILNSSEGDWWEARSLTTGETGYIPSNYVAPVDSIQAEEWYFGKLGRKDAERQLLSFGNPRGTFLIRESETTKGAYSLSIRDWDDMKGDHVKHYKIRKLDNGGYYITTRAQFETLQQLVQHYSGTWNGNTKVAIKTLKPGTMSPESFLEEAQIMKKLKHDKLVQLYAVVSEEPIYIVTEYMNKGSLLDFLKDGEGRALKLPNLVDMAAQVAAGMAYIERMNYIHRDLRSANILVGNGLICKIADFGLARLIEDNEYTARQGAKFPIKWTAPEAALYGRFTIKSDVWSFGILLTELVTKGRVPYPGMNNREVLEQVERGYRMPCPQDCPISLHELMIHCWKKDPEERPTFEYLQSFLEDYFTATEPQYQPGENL
From the text: In order to check the expression of c-Src protein in the case of co-expressing the GST-DDR2 CKD and the c-Src (lane 2), a portion of lysate of the host cells is undergone a SDS-PAGE and then a western blotting using a c-Src protein specific antibody. Likewise in order to check the expression of c-Fyn protein in the case of co-expressing the GST-DDR2 CKD and the c-Fyn (lane 3), a portion of lysate of the host cells is undergone a SDS-PAGE and then a western blotting using a c-Fyn protein specific antibody.
The presence of equal amount of protein at each lane was estimated by coomassie brilliant blue (CBB) staining. The co-expression of c-Src or c-Fyn protein was confirmed by western blotting on aliquot of total cell lysate using human c-Src or c-Fyn specific antibody.
as §1

tyrosine phosphorylation induced by co-expression with c-Fyn (c-Fyn tyrosine kinase): remarkably induced
B1: GST-DDR2 CKD: fusion protein of glutathione S transferase and human DDR2 cytosolic tyrosine kinase domain, solely expressed in insect cells (protein)
chain: MTVSLSLPSDSSMFNNNRSSSPSEQGSNSTYDRIFPLRPDYQEPSRLIRKLPEFAPGEEESGCSGVVKPVQPSGPEGVPHYAEADIVNLQGVTGGNTYSVPAVTMDLLSGKDVAVEEFPRKLLTFKEKLGEGQFGEVHLCEVEGMEKFKDKDFALDVSANQPVLVAVKMLRADANKNARNDFLKEIKIMSRLKDPNIIHLLSVCITDDPLCMITEYMENGDLNQFLSRHEPPNSSSSDVRTVSYTNLKFMATQIASGMKYLSSLNFVHRDLATRNCLVGKNYTIKIADFGMSRNLYSGDYYRIQGRAVLPIRWMSWESILLGKFTTASDVWAFGVTLWETFTFCQEQPYSQLSDEQVIENTGEFFRDQGRQTYLPQPAICPDSVYKLMLSCWRRDTKNRPSFQEIHLLLLQQGDE
modifications: left off: a dimerising Fc or GST
notes: fusion protein of glutathione S transferase and human DDR2 cytosolic tyrosine kinase domain, solely expressed in insect cells
tyrosine phosphorylation induced by H2O2 processing (sf9 cells): remarkably induced; also recorded: strongly induced | tyrosine phosphorylation induced by co-expression with c-Src (c-Src tyrosine kinase): remarkably induced; also recorded: strongly induced | shc binding after in vitro autophosphorylation reaction (shc protein; autophosphorylation at 30° C. for 15 min, FIG. 15, FIG. 16): failure to show an improved shc binding | shc binding before in vitro autophosphorylation (shc protein; mock-autophosphorylation with gamma-S-ATP, FIG. 15): did not attract shc protein binding significantly
